Experiments:
Assay in all cases: ELISA, coated antibody 1000 nM, 250 ng FLAG-tagged mutant Ang2, anti-FLAG-HRP, OD450
[1] = target: T1, mutant Ang2 protein, Y460 substituted with alanine, FLAG-tagged at its N-terminal (human, UniProt O15123 19-496, limits assumed)
T1 sequence: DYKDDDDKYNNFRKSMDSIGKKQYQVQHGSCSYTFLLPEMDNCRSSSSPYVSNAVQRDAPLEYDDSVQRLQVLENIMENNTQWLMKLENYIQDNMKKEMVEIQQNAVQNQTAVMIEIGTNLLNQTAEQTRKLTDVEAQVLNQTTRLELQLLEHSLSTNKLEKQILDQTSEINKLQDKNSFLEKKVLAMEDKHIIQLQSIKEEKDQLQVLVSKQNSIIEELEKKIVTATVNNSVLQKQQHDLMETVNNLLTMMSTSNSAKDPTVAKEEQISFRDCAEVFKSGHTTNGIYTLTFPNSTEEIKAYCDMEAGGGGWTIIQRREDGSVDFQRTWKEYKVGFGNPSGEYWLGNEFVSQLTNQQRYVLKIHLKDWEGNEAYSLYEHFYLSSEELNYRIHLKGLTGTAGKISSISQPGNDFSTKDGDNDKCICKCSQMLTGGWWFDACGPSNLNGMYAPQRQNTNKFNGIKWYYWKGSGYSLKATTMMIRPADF
Description: (§1) Each well of a 96-well MaxiSorp™ flat-bottom plate (Nunc) was coated with 50 ul (microliter) of 1000 nM antibody. Then, the plate was washed five times with 0.05% (v/v) Tween-20-containing PBS (PBST) and blocked with 1% (v/v) BSA-containing PBS at a room temperature for 2 hours. 250 ng of each mutant Ang2 protein obtained by substituting S417, Q418, P419, N421, I434, D448, A449, P452, Y460, N467, K468, or F469 residue of Ang2 protein tagged with a FLAG sequence ([…], Sigma) at its N-terminal with alanine was added to each well of the plate, which was then allowed to react at a room temperature for 2 hours.
(§2) The plate was washed five times with 0.05% (v/v) Tween-20 containing PBS, reacted with an anti-FLAG antibody (SIGMA) conjugated with HRP which was diluted in 1% (v/v) BSA-containing PBS at a ratio of 1:5,000 (v/v) at a room temperature for 1 hour, and washed five times with 0.1% (v/v) Tween-20-containing PBS.
(§3) Finally, 50 ul of TMB substrates (Cell signaling) was added to each well of the plate to induce color development at a room temperature for 3 min. and the reaction was ceased by the addition of 50 ul of Stop solution (Cell signaling) and then, OD450 values were measured on a plate reader (Molecular Devices). By comparing binding affinities with mutated Ang2 to those of unmutated Ang2, each epitope of Ang2 antibodies was identified. The thus obtained measurement results of the binding affinities (%) with mutant Ang2 against the binding affinity with the native Ang2 are shown in the following Table 8.

[2] = target: T2, mutant Ang2 protein, K468 substituted with alanine, FLAG-tagged at its N-terminal (human, UniProt O15123 19-496, limits assumed)
T2 sequence: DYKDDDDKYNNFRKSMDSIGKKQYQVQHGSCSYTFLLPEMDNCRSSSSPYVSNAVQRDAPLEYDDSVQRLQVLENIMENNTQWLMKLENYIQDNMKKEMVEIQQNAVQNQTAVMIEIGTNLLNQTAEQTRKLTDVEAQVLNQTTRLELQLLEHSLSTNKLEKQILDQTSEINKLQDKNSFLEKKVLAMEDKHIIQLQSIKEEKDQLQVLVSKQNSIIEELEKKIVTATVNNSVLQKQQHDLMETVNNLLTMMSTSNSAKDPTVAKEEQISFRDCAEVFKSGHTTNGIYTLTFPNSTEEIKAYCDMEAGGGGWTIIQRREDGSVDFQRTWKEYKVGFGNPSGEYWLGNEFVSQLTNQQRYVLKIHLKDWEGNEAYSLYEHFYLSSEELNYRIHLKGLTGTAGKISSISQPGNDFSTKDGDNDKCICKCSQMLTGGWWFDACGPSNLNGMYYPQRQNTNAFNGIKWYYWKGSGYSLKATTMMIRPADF
Description: as §1, §2, §3

[3] = target: T3, mutant Ang2 protein, I434 substituted with alanine, FLAG-tagged at its N-terminal (human, UniProt O15123 19-496, limits assumed)
T3 sequence: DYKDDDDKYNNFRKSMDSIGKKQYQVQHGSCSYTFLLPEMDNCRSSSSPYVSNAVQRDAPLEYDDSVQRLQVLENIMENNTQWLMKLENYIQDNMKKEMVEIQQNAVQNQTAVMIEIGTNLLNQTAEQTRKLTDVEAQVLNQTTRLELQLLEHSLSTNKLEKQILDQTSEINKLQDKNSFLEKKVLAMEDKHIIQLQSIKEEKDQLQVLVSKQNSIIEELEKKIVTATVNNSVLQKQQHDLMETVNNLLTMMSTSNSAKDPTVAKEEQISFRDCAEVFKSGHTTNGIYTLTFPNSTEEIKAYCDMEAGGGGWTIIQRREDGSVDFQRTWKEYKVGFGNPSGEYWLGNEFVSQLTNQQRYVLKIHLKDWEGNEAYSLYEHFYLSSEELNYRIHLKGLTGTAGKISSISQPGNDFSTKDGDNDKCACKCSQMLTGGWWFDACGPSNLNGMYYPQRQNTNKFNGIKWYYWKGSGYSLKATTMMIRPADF
Description: as §1, §2, §3

[4] = target: T4, mutant Ang2 protein, P452 substituted with alanine, FLAG-tagged at its N-terminal (human, UniProt O15123 19-496, limits assumed)
T4 sequence: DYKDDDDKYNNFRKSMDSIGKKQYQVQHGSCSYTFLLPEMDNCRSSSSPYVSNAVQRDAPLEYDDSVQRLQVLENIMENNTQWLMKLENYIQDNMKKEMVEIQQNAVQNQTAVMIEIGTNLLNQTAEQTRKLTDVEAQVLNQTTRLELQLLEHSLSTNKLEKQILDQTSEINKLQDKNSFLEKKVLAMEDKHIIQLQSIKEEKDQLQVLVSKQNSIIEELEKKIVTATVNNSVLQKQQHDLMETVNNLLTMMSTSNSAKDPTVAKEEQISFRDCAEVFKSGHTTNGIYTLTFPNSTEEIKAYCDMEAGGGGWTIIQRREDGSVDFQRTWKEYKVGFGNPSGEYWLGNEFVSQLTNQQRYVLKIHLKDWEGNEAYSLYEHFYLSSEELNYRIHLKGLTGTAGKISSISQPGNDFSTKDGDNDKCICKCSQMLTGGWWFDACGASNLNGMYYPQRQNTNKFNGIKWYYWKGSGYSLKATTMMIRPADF
Description: as §1, §2, §3

B1: SAIT-ANG2-AB-m10D6 (antibody, V domains shown)
VH: DVQLQESGPGLVKPSQSLSLTCTVTGYSITSDYAWNWIRQFPGNKLEWMGYINYSGNTDYNPSLKSRSSITRDTSKNQFFLQLNSVTTGDTATYYCARGNFEGAMDYWGQGTSVTVSS
VL: SIVMTQTPKFLLVSAGDRVTITCKASQSVSNDVAWYQQKPGQSPKLLIYYASNRYPGVPDRFTGSGYGTDFTFTISTVQAEDLAVYFCQQDYSSPWTFGGGTKLEIK
notes: also called antibody 10D6; anti-Ang2 antibody (10D6)
binding affinity (%) with mutant Ang2 against the binding affinity with the native Ang2 [1]: 103% | binding affinity (%) with mutant Ang2 against the binding affinity with the native Ang2 [2]: 110% | binding affinity (%) with mutant Ang2 against the binding affinity with the native Ang2 [3]: 109% | binding affinity (%) with mutant Ang2 against the binding affinity with the native Ang2 [4]: 102%

Source: patent US20150079112A1 (SAMSUNG ELECTRONICS, published 2015)
